We go through three molecules from patent US20150093799A1.

Experiment [1] deals with anti-Jo-1 antibodies (commercially available, from human patient samples) (human). Description: immunodepletion: HRS polypeptide on NHS-agarose (Affi-gel 10), anti-Jo-1 antibodies (RDL) at 1:1,000, titre by ELISA before and after. Background: An ELISA detects its analyte on a solid surface through an enzyme-linked reagent.
Experiment [2] shares this target. Description: competitive ELISA: soluble competitor pre-incubated with anti-Jo-1 serum; competitor is plate-bound full-length wild-type HisRS; A450.
For experiment [3] the target is unchanged. Description: competitive ELISA: soluble competitor pre-incubated with anti-Jo-1 serum; competitor is plate-bound full-length human wild-type HisRS; A450.
The target is the same in experiment [4]. Description: competitive ELISA: soluble HisRS pre-incubated with anti-Jo-1 human serum at 1:2,000; competitor is plate-bound full-length wild-type HisRS; A450.
Experiment [5] shares this target. Kind of experiment: competitive ELISA, full-length histidyl-tRNA synthetase on the plate.

B1: Full-length histidyl-tRNA synthetase (HRS), His-tagged (enzyme)
chain: MAERAALEELVKLQGERVRGLKQQKASAELIEEEVAKLLKLKAQLGPDESKQKFVLKTPKGTRDYSPRQMAVREKVFDVIIRCFKRHGAEVIDTPVFELKETLMGKYGEDSKLIYDLKDQGGELLSLRYDLTVPFARYLAMNKLTNIKRYHIAKVYRRDNPAMTRGRYREFYQCDFDIAGNFDPMIPDAECLKIMCEILSSLQIGDFLVKVNDRRILDGMFAICGVSDSKFRTICSSVDKLDKVSWEEVKNEMVGEKGLAPEVADRIGDYVQQHGGVSLVEQLLQDPKLSQNKQALEGLGDLKLLFEYLTLFGIDDKISFDLSLARGLDYYTGVIYEAVLLQTPAQAGEEPLGVGSVAAGGRYDGLVGMFDPKGRKVPCVGLSIGVERIFSIVEQRLEALEEKIRTTETQVLVASAQKKLLEERLKLVSELWDAGIKAELLYKKNPKLLNQLQYCEEAGIPLVAIIGEQELKDGVIKLRSVTSREEVDVRREDLVEEIKRRTGQPLCICAAALEHHHHHH
In turn, B1 yielded a percent of detectable Jo-1 antibodies removed in experiment [1] of 93%. The IC50 (read off the curve) in experiment [2] amounted to 30 pM; in experiment [3], 0.3 nM; in experiment [4], 0.8 nM.

B2: HRS(1-506) (enzyme)
chain: MAERAALEELVKLQGERVRGLKQQKASAELIEEEVAKLLKLKAQLGPDESKQKFVLKTPKGTRDYSPRQMAVREKVFDVIIRCFKRHGAEVIDTPVFELKETLMGKYGEDSKLIYDLKDQGGELLSLRYDLTVPFARYLAMNKLTNIKRYHIAKVYRRDNPAMTRGRYREFYQCDFDIAGNFDPMIPDAECLKIMCEILSSLQIGDFLVKVNDRRILDGMFAICGVSDSKFRTICSSVDKLDKVSWEEVKNEMVGEKGLAPEVADRIGDYVQQHGGVSLVEQLLQDPKLSQNKQALEGLGDLKLLFEYLTLFGIDDKISFDLSLARGLDYYTGVIYEAVLLQTPAQAGEEPLGVGSVAAGGRYDGLVGMFDPKGRKVPCVGLSIGVERIFSIVEQRLEALEEKIRTTETQVLVASAQKKLLEERLKLVSELWDAGIKAELLYKKNPKLLNQLQYCEEAGIPLVAIIGEQELKDGVIKLRSVTSREEVDVRREDLVEEIKRRTGQPL
B2 gave a percent of detectable Jo-1 antibodies removed in experiment [1] below 99%. In experiment [3], this molecule had an IC50 (read off the curve) of 0.3 nM.

B3: Resokine (HRS(1-60)), His-tagged (peptide)
chain: MAERAALEELVKLQGERVRGLKQQKASAELIEEEVAKLLKLKAQLGPDESKQKFVLKTPKHHHHHH
In the case of B3, the concentration above which competition is seen in experiment [5] is above 100 nM. Besides, in experiment [1], the percent of detectable Jo-1 antibodies removed worked out at 20%.
